# According to the nanobody polyreactivity screen of Harvey et al. (2022):
# Assay: yeast display, Sf9 membrane polyspecificity reagent, FACS + sequencing; frameworks hold sequencing errors
# Procedure, shortened: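 Galactose induction of a Saccharomyces cerevisiae BJ5465 synthetic nanobody display library ran 36–48 hours. The cells were then stained for 1 hour at 4 °C with 10% biotinylated, detergent-solubilized Sf9 membrane reagent, pulled down on streptavidin microbeads and FACS-sorted into low and high (top ~1%) gates on expression and reagent-binding fluorescence. Labels for polyreactivity follow the gate of origin.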
row,Sequence,polyreactivity (PSR sort gate)
1,QVQLVESGGGLVQAGGSLRLSCAASGFTFDFNAMGWSRQAPGKERELVAAISSGASTNYADSVKGRFTISRDNAKNTVYLQMNSLKPEDTAVYYCAARSRTPGWYSTISRKMYWGQGTQVTVSS,high polyreactivity
2,QVQLVESGGGLVQAGGSLRLSCAASGFTFDFYALGWYRQAPGKERELVAAISKNDGTTYYADSVKGRFTISRDNAKNTVYLQMNSLKPEDTAVYYCNAGNNVVVDYDYWGQGTQVTVSS,low polyreactivity
3,QVQLVESGGGLVQAGGSLRLSCAASGFTFDFYAMGWNRQAPGKERELVAVISSSGRTYYADSVKGRFTISRDNAKNSVYLQMNSMKPEDTAVYYCDAKDKRGHTYDYWGQGTQVTVSS,high polyreactivity
4,QVQLVESGGGLVQAGGSLRLSCAASGFTFDGYAIGWYRQAPGKERDLVAAISGAGGSTYYADSVKGRFTISRDNAKNTVYFQMNSLKPEDTAFYYCAAEWIADLSSPVWYDYWGQGTQVTVSS,high polyreactivity
5,QVQLVESGGGLVQAGGSLRLSCAASGFTFDGYAMGSYRQAPGKERELVAAISDSGDSTYYADSVKGRFTISRDNAKNTVYLQMNSLKPEDTAVYYCAAPSVGYYDPTDFDYWGQGTQVTVSS,low polyreactivity
6,QVQLVESGGGLVQAGGSLRLSCAASGFTFDGYAMGWYRQAPGKERELVAAIRRSGASTYYADSVKGRFTISRDNAKNTVYLHMNSLKPEDTAVYYCNATRNYEPRYSSFTLRGYYWGQGTQVTVSS,low polyreactivity
7,QVQLVESGGGLVQAGGSLRLSCAASGFTFDGYAMGWYRQAPVKERDLVAAISDSGDSTYYADSVKGRFTISRDNAKNTVYVQMNILKPEDTAVYYCNAEQWQSSEYGEWSKRDYWGQGTQVTVSS,low polyreactivity
8,QVQLVESGGGLVQAGGSLRLSCAASGFTFDHYAMGWCRQAPGKERELVAAITSSGGRTYYADSVKGRFTISRDNAKNTVYLQMNSLKPEDTAVYYCNARPVYYSGYGYWGQGTQVTVSS,high polyreactivity
9,QVQLVESGGGLVQAGGSLRLSCAASGFTFDKYAMGWYRQAPGKERELVAAISGSGGTTYYADSVKGRFTISRDNAKNTVYLQMNSLKPEDTAVYYCATRLYSIYSYGYWGQGTQVTVSS,high polyreactivity
10,QVQLVESGGGLVQAGGSLRLSCAASGFTFDLYAMGWSRQAPGKERELVASISSGGITYYADSVKGRFTITRDNANNTVYLQMNSLKPEDTAVYYCARDWRYGSWEGDDYWGQGTQVTVSS,low polyreactivity
11,QVQLVESGGGLVQAGGSLRLSCAASGFTFDLYAMGWYRQAPGKERELVAAISWSGGSTRYADSVKGRFTISRDNAKNTVYLQMNSLKPADSAVYYCARQPRLYFKGKLYGYWGQGTHVTVSS,high polyreactivity
12,QVQLVESGGGLVQAGGSLRLSCAASGFTFDNYVMGWYRQAPGKERELVAAISKSGTSTYYADSVKGRFTISRDNAKNTVYLQMNSLKPEDTAVYYCAAELPGYYYAYDYWGQGTQVTVSS,high polyreactivity
13,QVQLVESGGGLVQAGGSLRLSCAASGFTFDNYVMGWYSQAPGKERELVAAISKSGTSTYYADSVKGRFTISRDNAKNTVYLQMNSLKPEDTAVYYCAAALPGYGDYYYWGQGTQVTVSS,high polyreactivity
14,QVQLVESGGGLVQAGGSLRLSCAASGFTFDRYAMGWYRQAPGKERELVAAISWRGGSTYYADSVKGRFTISRDNAKNTDYLQMNSLKPEDTAVYYCNKGTRHTTAGTPRYDYWGQGTQVTVSS,high polyreactivity
15,QVQLVESGGGLVQAGGSLRLSCAASGFTFDSNAMGWYRQAPGKERELVAAISRRGGSTYYADSVKGRFTISRDNAKNTVYLQMNSLKPEDTAVYYCNKESWRIGRYQYDSWGQGTQVTVSS,high polyreactivity
16,QVQLVESGGGLVQAGGSLRLSCAASGFTFDSYAMGWYRQAPGKERELVAAITSSGGRTYYADSVKGRFTISRDNAKNTVYLQMNSLKPEDTSVYYCAARAISNFGYWGQGTQVTVSS,high polyreactivity
17,QVQLVESGGGLVQAGGSLRLSCAASGFTFDSYAMGWYRQAPGKERELVAAITSTGGSTYYADSVKGRFTISRDTAKNTVYLQMNSLKPEDTAVYYCAARGGYYKRGYWGQGTQVTVSS,high polyreactivity
18,QVQLVESGGGLVQAGGSLRLSCAASGFTFDSYDMGWSRQAPVKEREVVAAITWSGGSTYYADSVKGRFTISRDNAKNTVYLQMNSLKQEDTAVYYCNADTGTYWVPWYHDGYDYWGQGTQVTVSS,low polyreactivity
19,QVQLVESGGGLVQAGGSLRLSCAASGFTFDSYDMGWYRQAPGKERELVAAISKSGGTTYYADSLKGRFTISRDNANNTVYLQMNSLKPEDTAVFYCAAGGPRGGYGRYYYWGPGTQVTVSS,high polyreactivity
20,QVQLVESGGGLVQAGGSLRLSCAASGFTFDSYDMGWYRQAPGKERELVAAITWSGGSTYYADSVKGRFTISRDNAKNTVYLQMYSLKPEDTAVYYCKADTGTYWVPWYHDGYDYWGEGTQVTVSS,low polyreactivity
21,QVQLVESGGGLVQAGGSLRLSCAASGFTFDVNAMGWYRQAPGKERELVASITGSGSRTDYADSVKGRFTISRDNAKNTVYLQMNSLKPEDTAVYYCATDQRLGYQDDDYWGQGTQVTVSS,low polyreactivity
22,QVQLVESGGGLVQAGGSLRLSCAASGFTFDVNAMGWYRQAPGKERELVATISSNGGSTYYADSVKGRFTISRDNAKNTVYLQMNSLKPEDTAVYYCAADVYRLLRRYRYYYWGQGTQVTVSS,low polyreactivity
23,QVQLVESGGGLVQAGGSLRLSCAASGFTFDVYALGWYRQAPGKERELVAAISARGGSTCYADSVKGRFTISRDNAKNTVYLQMHSLKPEDTAVYYCNTYPKKKRPNEYDYWGQGTQVTVSS,high polyreactivity
24,QVQLVESGGGLVQAGGSLRLSCAASGFTFDVYAMGWYRQAPGKERELVAAITGSDGSTYYADSVKGRFTISRDNAKNTVYLQMNSLKPEDTAVYYCNARSRSVVYKYDYWGQGTQVTVSS,low polyreactivity
25,QVQLVESGGGLVQAGGSLRLSCAASGFTFDYNAMGWYRQAPGKDRELVAVISSSGSRTYYADSVKGRFTISRDNAKNTVYLQMNSLKPEDTAVYYCNSGRTYRRLGDYWGQGTQVTVSS,high polyreactivity
26,QVQLVESGGGLVQAGGSLRLSCAASGFTFDYYAMGWYRPAPGKERELVAAISWRGTTTYYADSVKGRFTISRDNEKNTVYLQMNSLKPEDTAVYYCAADSLFGHYDYWGHGTQVTVSS,low polyreactivity
27,QVQLVESGGGLVQAGGSLRLSCAASGFTFDYYAMGWYRQAPGKERELVAAISVSGGITYYADSVKGRFTISRDNAKNTVYLQMNSLKPEDTAVYYCNAVFYYPYPADRRDYWGQGTQVTVSS,high polyreactivity
28,QVQLVESGGGLVQAGGSLRLSCAASGFTFDYYNMGWYRQAPGKERELVAAITSGASTNYADSVKGRFTISRDNAKNTVYLQMNSLKPEDTAVYYCAAVLAGGVYWVVHYDYWGQGTQVTVSS,low polyreactivity
29,QVQLVESGGGLVQAGGSLRLSCAASGFTFEDNTMGWYRQAPGKERELVAAITWGGVSTYYADSVKGRFTISRDNAKNTVYLQMNSLKPEDTAVYYCAAEEQVVKAHGDYWGQGTQVTVSS,low polyreactivity
30,QVQLVESGGGLVQAGGSLRLSCAASGFTFEENAMGWYRQAPGINYSGASTYYADSVKGRFTISRDKAKNTVYLQMNSLKPDDTAVYYCAADVVAQMNYWGQGTQVTVSS,low polyreactivity
